Changes are numbered by the printed parent chain. Like-named read-outs stand apart in the source and are kept apart here. Values belong to the binder of their own block, whether it stands above or below them.
Columns and labels:
[1] = target: T1, human Proprotein Convertase Subtilisin-like/Kexin type 9 (UniProt Q8NBP7 31-692); experiment: ELISA
[2] = target: T2, cynomolgus monkey PCSK9 (cynomolgus monkey, UniProt A0A7N9D9N8 150-747); experiment: ELISA
T2 chain: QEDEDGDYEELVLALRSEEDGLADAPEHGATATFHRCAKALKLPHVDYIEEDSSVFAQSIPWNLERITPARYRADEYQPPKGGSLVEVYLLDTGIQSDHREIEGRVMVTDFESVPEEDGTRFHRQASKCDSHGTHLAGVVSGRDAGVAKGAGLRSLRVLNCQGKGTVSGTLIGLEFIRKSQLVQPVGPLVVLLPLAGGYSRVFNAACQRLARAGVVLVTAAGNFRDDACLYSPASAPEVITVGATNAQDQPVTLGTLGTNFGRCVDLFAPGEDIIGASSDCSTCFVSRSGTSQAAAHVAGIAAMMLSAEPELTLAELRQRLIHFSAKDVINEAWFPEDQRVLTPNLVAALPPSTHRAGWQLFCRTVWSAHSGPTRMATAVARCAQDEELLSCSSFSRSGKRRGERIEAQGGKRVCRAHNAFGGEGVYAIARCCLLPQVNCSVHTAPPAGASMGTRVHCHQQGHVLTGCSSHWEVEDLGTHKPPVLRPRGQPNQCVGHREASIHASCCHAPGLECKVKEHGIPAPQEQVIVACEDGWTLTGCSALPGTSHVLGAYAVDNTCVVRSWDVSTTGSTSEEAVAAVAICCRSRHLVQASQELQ

[3] = target: T1, human Proprotein Convertase …; experiment: ELISA; remark: listed apart in the source
Target sequence in this assay (Q8NBP7 31-692): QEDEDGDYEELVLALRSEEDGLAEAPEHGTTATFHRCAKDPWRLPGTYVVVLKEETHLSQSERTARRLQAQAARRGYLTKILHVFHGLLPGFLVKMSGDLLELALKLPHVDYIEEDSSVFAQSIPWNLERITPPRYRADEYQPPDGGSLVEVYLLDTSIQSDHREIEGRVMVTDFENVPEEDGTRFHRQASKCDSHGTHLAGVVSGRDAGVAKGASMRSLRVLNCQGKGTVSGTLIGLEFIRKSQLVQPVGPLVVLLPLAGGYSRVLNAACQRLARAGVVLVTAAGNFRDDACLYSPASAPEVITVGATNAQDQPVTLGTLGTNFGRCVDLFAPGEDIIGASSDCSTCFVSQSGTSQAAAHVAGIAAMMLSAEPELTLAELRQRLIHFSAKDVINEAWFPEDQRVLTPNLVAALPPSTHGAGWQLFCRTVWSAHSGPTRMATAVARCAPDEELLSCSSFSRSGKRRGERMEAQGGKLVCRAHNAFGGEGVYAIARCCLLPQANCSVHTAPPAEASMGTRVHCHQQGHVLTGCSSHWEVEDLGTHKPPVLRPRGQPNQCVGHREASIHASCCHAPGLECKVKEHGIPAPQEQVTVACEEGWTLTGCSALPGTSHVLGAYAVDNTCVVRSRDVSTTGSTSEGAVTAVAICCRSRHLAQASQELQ

[4] = target: T1, human Proprotein Convertase …; experiment: ELISA; remark: listed apart in the source
[5] = target: T1, human Proprotein Convertase …; experiment: PCSK9-LDLR blocking ELISA
[6] = target: T1, human Proprotein Convertase …; experiment: PCSK9-LDLR blocking ELISA; remark: listed apart in the source

EC50 [1]: 0.301 nM | EC50 [2]: 0.278 nM
B1: Ab17 (antibody, V domains shown)
VH: QEQLEESGGDLVKPEGSLTLTCTASGFSFSSSYWICWVRQAPGKGLEWIGCIRPGSADYYASWAKGRFTISRASSSTVTLQMTSLTAADTATYFCASDINDGWLGQFNLWGPGTLVTVSS
VL: DVVMTQTPASVEAAVGGTVTIKCQASLSIADYLAWYLQKPGQPPKLLIYRASTLASGVPSRFKGSGSGTEYTLTISDLECADAATYYCQSYYSVTTNTYGNTFGGGTEVVVKR

EC50 [1]: 0.286 nM | EC50 [2]: 0.31 nM
B2: Ab16 (antibody, V domains shown)
VH: QEQLVESGGGLVQPEGSLTLTCTASGFSFSSDYWICWVRQAPGKGLEWIGCIRDGGGSYYANWAKGRLTISMTSSTTVGLKMTSLTAADTATYFCASDINDGWLGQFNLWGPGTLVTVSS
VL: B1 VL with V2I, L27Q, A30S, D31S, L37Q, K63S, Y71F, N97V

EC50 [3]: 0.0936 nM
B3: Ab2 (antibody, V domains shown)
VH: QSVEESGGRLVTPGTPLTLTCTVSGFSLSSYAMSWVRQAPGKGLEWIGIIDAIDNTYYASWAKGRFTISKTSTTVDLKMTSLTTGDTATYFCARASILGYSIATGFNIWGPGTLVTVSS
VL: AYDMTQTPASVEVAVGGTVTIKCQASQSISSHLAWYQQKSGQPPKLLIYRASTLESGVSSRFKGSGSGTEFTLTISDLECADAATYYCQQGYGVSDVDNGFGGGTEVVVKR

EC50 [3]: 0.105 nM
B4: Ab3 (antibody, V domains shown)
VH: QSVEESGGRLVTPGGSLTLTCTASGFSLSSYYMSWVRQAPGKGLEWIGIIYPSGSTYYASWAKGRFTISKTSTTVDLKITSPTVEDTATYFCARGGAYATLNLWGPGTLVTVSS
VL: AVLTQTPSPVSAAVGGTVTISCQSSQSVYHNNLLSWYQQKPGQPPKLLIYDASKLTSGVSSRFSGSGSGTQFTLTISGVQCDDAATYYCLGGYDDDADNGFGGGTEVVVKR

EC50 [4]: 0.943 nM
B5: Ab19 (antibody, V domains shown)
VH: EVQLVESGGGLVQPGGSLRLSCAASGIDLSSYAMGWVRQAPGKGLEYIGIIVSYGPTYYASWAKGRFTISRDNSKNTVYLQMNSLRAEDTATYFCARDLDAQSSGYYGAFNIWGQGTLVTVSS
VL: DIQMTQSPSTLSASVGDRVTITCQASQSISTALAWYQQKPGKAPKLLIYAASPLASGVPSRFSGSGSGTEFTLTISSLQPDDFATYYCQSYYGSSNIAFGGGTKVEIKR

IC50 [5]: 3.3 nM
B6: Ab22 (antibody, V domains shown)
VH: EVQLVESGGGLVQPGGSLRLSCAASGFSLSSYAMNWVRQAPGKGLEWIGAIRSSGATFFASSVNGRFTISRDNSKNTVYLQMNSLRAEDTAVYYCARDTNDGWYINRLDLWGQGTLVTVSS
VL: AVLTQSPSTLSASVGDRVTITCQSSKSVYSNYLSWFQQKPGKAPKFLIYKASTLASGVPSRFSGSGSGTEFTLTISSLQPDDFATYYCAGGDTNIADNAFGGGTKVEIKR

EC50 [3]: 0.0843 nM
B7: Ab4 (antibody, V domains shown)
VH: QSVEESGGRLVTPGTPLTLTCTVSGIDLSSYAMIWVRQAPEKGLEYIGYIGGIDSTYYASWAKGRFTISKTSTTVDLKMTSPTTEDTATYFCGRWSGTSGYNTIWGPGTLVTVSS
VL: DVVMTQTPASVEAAVGGTVTIKCQASQSIYSNLAWYQQKPGQPPKLLIYGASNLASGVSSRFKGSRSGTEYTLTISDLECADAATYYCQCTGGGDSGNTFGGGTEVVVKR

IC50 [6]: 1.59 nM
B8: Ab9 (antibody, V domains shown)
VH: QSVEESGGRLVTPGTPLTLTCTVSGIDLSSYAMGWVRQAPGKGLEYIGIIVSYGPTYYASWAKGRFTISKTSTTVDLKITSPTAEDTATYFCARDLDANSSGYYGCFNIWGQGTLVTVSS
VL: AVVLTQTPASVSAAVGGTVTIKCQASQSISTALAWYQQKPGQPPKLLIYAASPLASGVSSRFKSSGSGTEFTLTISDLECADAATYYCQSYYGSSNIAFGGGTELEILR

EC50 [3]: 0.117 nM
B9: Ab1 (antibody, V domains shown)
VH: QSVEESGGRLVTPGTPLTLTCTVSGFSLSSYWMTWVRQAPGKGLEYIGIISSSGSTYYATWAKGRFTISKTSSTTVDLEITSPTTEDTATYFCARDSAFSSGLEFNIWGPGTLVTVSS
VL: AYDLTQTPASVEVAVGGTVTIKCQASQSVYSNWLSWYQQKPGQPPKLLIYDASDLASGVPSRFKGSGSGTQFTLTISGVQCDDAATYYCQQGQSSSDIDNTFGGGTEVVVKR
